Biological target: recombinant Tp0956 (non-lipidated, residues 2-302) (Treponema pallidum)
Assay: AUC

Chain of recombinant Tp0956 (non-lipidated, residues 2-302) (Treponema pallidum) (O83922 23-323 limits assumed): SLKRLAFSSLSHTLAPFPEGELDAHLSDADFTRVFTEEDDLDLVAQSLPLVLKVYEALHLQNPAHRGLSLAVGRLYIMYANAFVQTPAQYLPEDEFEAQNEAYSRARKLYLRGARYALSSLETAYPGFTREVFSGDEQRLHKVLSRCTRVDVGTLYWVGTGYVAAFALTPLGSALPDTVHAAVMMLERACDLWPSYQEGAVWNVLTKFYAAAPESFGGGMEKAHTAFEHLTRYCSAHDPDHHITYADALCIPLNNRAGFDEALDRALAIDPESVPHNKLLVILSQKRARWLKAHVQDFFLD

recombinant Tp0957 (non-lipidated, residues 7-328) (natural protein)
Kd(1), first binding event (macroscopic): 0.06 µM
cooperativity factor α2 (second binding event): 1.5
cooperativity factor α3 (third binding event): 0.34
